We go through one molecule from patent publication US20060211042A1 (Johns Hopkins, published 2006).

The target of the assay is T1, rEAAT3/EAAC1 (rat excitatory amino acid transporter 3), full length, expressed in HEK 293T cells (rat, UniProt P51907 1-523).
T1 sequence (looked up): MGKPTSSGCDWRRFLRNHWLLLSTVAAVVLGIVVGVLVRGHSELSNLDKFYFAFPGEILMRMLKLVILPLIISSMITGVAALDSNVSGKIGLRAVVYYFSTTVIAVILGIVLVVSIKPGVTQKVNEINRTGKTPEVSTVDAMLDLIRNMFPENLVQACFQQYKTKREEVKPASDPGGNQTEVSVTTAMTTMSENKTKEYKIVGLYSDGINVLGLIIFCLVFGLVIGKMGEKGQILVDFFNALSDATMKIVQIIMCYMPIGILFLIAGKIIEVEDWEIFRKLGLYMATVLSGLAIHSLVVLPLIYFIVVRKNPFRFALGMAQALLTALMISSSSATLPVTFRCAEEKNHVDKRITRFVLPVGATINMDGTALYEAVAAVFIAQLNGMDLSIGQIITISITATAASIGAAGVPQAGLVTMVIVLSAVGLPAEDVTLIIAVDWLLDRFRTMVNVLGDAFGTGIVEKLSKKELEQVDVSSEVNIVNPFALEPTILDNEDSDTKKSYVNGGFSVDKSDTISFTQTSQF
As to the kind of experiment: cell-based or functional assay.

B1: GTRAP3-18 (Glutamate Transporter Associated Protein of EAAT3), HA-tagged, expressed in HEK 293T cells (other, not shown: small tags and cut ends)
chain: MDVNLAPLRAWDDFFPGSDRFARPDFRDISKWNNRVVSNLLYYQTNYLVVAAMMISVVGFLSPFNMILGGIIVVLVFTGFVWAAHNKDILRRMKKQYPTAFVMVVMLASYFLISMFGGVMVFVFGITFPLLLMFIHASLRLRNLKNKLENKMEGIGLKKTPMGIILDALEQQEDSINKFADYISKARE
For the molecule B1, the “decrease in Na+-dependent L-[3H]-glutamate uptake in HEK 293T cells, co-transfection at equal ratio” value is ~20%.
